PMC5669500, “Scaffolding the cup-shaped double membrane in autophagy” (PLoS Computational Biology, 2017)
Changes are numbered by the printed parent chain.

Columns and labels:
Test in all cases: pull-down; 20 μg GST-Atg13 (351–458) immobilised on 30 μL Glutathione Sepharose 4B; Atg17-Atg31-Atg29 complex at 10 μM; 4°C, 1 hour; 20 mM Tris pH 8, 150 mM NaCl, 0.1 mM TCEP; 3 washes; SDS-PAGE
Conditions in all cases: both partners purified
[1] = target: T1, Atg17-Atg31-Atg29 complex, wild type (Saccharomyces cerevisiae, UniProt Q06410 1-417; Q12421 1-196; Q12092 1-213)
T1 construct: Atg17, Saccharomyces cerevisiae; Atg31, Saccharomyces cerevisiae; Atg29, Saccharomyces cerevisiae; a TEV cleavage site follows the His6 tag; Atg17 is described as a dimer; cleavage of the His6 tag by TEV is not mentioned; also called recombinant ternary complex; Atg17-Atg31-Atg29 subcomplex of Atg1; source: E. coli BL21 (DE3), co-expressed from pST39, purified (Ni-NTA, Superose 6); copies: 2 + +
T1 sequence (looked up) 1: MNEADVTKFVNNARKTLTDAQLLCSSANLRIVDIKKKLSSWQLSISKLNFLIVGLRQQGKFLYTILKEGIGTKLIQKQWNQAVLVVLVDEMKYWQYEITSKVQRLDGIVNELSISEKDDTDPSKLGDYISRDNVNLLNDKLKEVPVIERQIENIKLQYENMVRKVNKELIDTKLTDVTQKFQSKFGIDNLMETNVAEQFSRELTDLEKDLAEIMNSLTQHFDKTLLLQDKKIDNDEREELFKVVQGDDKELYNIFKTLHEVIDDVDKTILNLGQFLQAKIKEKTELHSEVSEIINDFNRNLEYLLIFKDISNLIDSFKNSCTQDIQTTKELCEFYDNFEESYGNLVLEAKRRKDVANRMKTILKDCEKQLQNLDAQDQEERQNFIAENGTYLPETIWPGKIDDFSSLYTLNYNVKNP
T1 sequence (looked up) 2: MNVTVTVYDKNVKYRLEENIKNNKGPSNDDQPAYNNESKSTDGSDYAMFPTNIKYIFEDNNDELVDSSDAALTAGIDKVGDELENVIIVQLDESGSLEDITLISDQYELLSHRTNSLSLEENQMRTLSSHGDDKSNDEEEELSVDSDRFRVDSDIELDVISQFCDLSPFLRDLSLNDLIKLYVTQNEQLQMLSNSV
T1 sequence (looked up) 3: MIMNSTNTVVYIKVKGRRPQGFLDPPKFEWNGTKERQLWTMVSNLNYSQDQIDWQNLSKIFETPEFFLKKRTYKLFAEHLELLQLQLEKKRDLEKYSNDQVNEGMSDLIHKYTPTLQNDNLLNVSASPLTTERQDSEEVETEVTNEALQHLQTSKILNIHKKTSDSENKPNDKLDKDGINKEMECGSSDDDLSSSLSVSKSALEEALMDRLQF

[2] = target: T2, Atg17-Atg31-Atg29 complex with Atg17 mutant M4 (K164D/K173D/R299D) (Saccharomyces cerevisiae, UniProt Q06410 1-417; Q12421 1-196; Q12092 1-213, K164D | K173D | R299D)
T2 construct: Atg17, Saccharomyces cerevisiae; Atg31, Saccharomyces cerevisiae; Atg29, Saccharomyces cerevisiae; a TEV cleavage site follows the His6 tag; Mutations introduced into the Atg17-Atg31-Atg29 construct by quick-change mutagenesis; source: E. coli BL21 (DE3), co-expressed from pST39, purified (Ni-NTA, Superose 6); copies: 2 + +
T2 sequence (looked up) 1: T1 sequence (looked up) 1 with K164D, K173D, R299D
T2 sequence (looked up) 2: T1 sequence (looked up) 2
T2 sequence (looked up) 3: T1 sequence (looked up) 3

[3] = target: T3, Atg17-Atg31-Atg29 complex with Atg17 mutant M2 (K318D/K329D/Y93E/W94E) (Saccharomyces cerevisiae, UniProt Q06410 1-417; Q12421 1-196; Q12092 1-213, K318D | K329D | Y93E | W94E)
T3 construct: Atg17, Saccharomyces cerevisiae; Atg31, Saccharomyces cerevisiae; Atg29, Saccharomyces cerevisiae; a TEV cleavage site follows the His6 tag; Mutations introduced into the Atg17-Atg31-Atg29 construct by quick-change mutagenesis; source: E. coli BL21 (DE3), co-expressed from pST39, purified (Ni-NTA, Superose 6); copies: 2 + +
T3 sequence (looked up) 1: T1 sequence (looked up) 1 with Y93E, W94E, K318D, K329D
T3 sequence (looked up) 2: T1 sequence (looked up) 2
T3 sequence (looked up) 3: T1 sequence (looked up) 3

Measured: binding result

B1: GST-Atg13 (351–458) (domain or fragment, Saccharomyces cerevisiae, UniProt Q06628 351-458, looked up)
chain: TRANSFEPQSWQKKVYPISRPVQPFKVGSIGSQSASRNPSNSSFFNQPPVHRPSMSSNYGPQMNIEGTSVGSTSKYSSSFGNIRRHSSVKTTENAEKVSKAVKSPLQP
notes: a TEV cleavage site follows the GST tag; source: recombinant from pGST2 vector, purified (Glutathione Sepharose 4B, HiLoad Superdex 200 16/60); not shown: GST, N-terminal, kept
binds: all assays above
